Values joined by “and” are separate entries in the source; they are usually repeats but may differ in a detail not shown here. Equal entries are not always repeated.

Data set [1] concerns the molecule itself. The data set is described as follows: SEC; purified, freeze-dried Te-PC resuspended in 15 mM citric acid-trisodium citrate pH 6.0; 250 µL (425 µg Te-PC) on Superdex-200 10/300 GL in 100 mM trisodium citrate, pH 6.0, 8 °C, 0.5 mL/min; absorption at 280 and 615 nm; sizes from molecular weight standards (apparent); peaks about 5% hexamer, 80% trimer, 15% (ɑβ) monomer. A general note: In gel filtration, larger molecules generally elute earlier.

Data set [2] concerns the target T1, phycocyanin β-subunit (CpcB) of Te-PC (Thermosynechococcus elongatus BP-1, UniProt P50033 1-172, phycobilin chromophore (chromophorylated; sites not given)).
T1 construct: phycocyanin beta-subunit CpcB of Thermosynechococcus elongatus BP-1, expressed from the cpcBACD (TeBACD) operon; source: Synechocystis sp
T1 sequence (looked up): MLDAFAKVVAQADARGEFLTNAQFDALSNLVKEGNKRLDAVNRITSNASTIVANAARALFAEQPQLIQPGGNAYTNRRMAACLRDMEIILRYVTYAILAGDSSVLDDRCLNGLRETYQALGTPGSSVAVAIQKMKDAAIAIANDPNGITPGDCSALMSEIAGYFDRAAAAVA
The data set is described as above. Particulars: both partners purified.

B1: thermostable phycocyanin from Thermosynechococcus elongatus BP-1, (ɑβ) monomer (complex)
chain 1: not shown
chain 2: T1 sequence (looked up)
modifications: phycobilin chromophore (chromophorylated; sites not given) | phycobilin chromophore (chromophorylated; sites not given)
notes: phycocyanin alpha-subunit CpcA of Thermosynechococcus elongatus BP-1, expressed from the cpcBACD (TeBACD) operon; phycocyanin beta-subunit CpcB of Thermosynechococcus elongatus BP-1, expressed from the cpcBACD (TeBACD) operon; The construct is described in the supplementary materials and in Puzorjov et al., 2021; also called Te-PC; PC; source: Synechocystis sp
As to B1, the stoichiometry N (usually a count of units in the complex or per binding partner) in data set [1] was 6 and 3.

B2: phycocyanin ⍺-subunit (CpcA) of Te-PC (natural protein)
chain: not shown
modifications: phycobilin chromophore (chromophorylated; sites not given)
notes: phycocyanin alpha-subunit CpcA of Thermosynechococcus elongatus BP-1, expressed from the cpcBACD (TeBACD) operon; source: Synechocystis sp
In the case of B2, in data set [2], the binding result is given as “binds”.

These data come from PMC8811538, “Pilot scale production, extraction and purification of a thermostable phycocyanin from Synechocystis sp. PCC 6803” (Bioresource Technology, 2022).
